Data reported in patent publication US20230212291A1 (BEIGENE, published 2023).

Biological target: T1, full-length human OX40 expressed on HuT78 cells (HuT78/OX40) (human, UniProt P43489 29-277)
T1 sequence: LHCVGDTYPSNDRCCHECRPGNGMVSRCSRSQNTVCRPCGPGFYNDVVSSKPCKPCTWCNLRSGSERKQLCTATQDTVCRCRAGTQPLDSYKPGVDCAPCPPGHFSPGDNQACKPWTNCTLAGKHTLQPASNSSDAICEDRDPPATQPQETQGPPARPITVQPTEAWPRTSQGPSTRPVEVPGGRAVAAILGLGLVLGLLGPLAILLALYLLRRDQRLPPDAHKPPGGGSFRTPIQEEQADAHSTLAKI
Assay: cell-based or functional assay

B1: 445-3 (antibody, human IgG1, V domains shown)
VH: QVQLVQSGAEVKKPGSSVKVSCKASGYKFTSYIIHWVRQAPGQGLEWMGYINPYNEGTRYNQKFQGRVTLTADKSTSTAYMELSSLRSEDTAVYYCARGYYGSSYAMDYWGQGTTVTVSS
VL: DIQMTQSPSSLSASVGDRVTITCRASQGISNYLNWYQQKPDGAIKLLIYDASTLYSGVPSRFSGSGSGTDFTLTISSLQPEDFATYYCQQYSKLPYTFGGGTKVEIK
ADCC (LDH release), NK92MI/CD16V effector cells, HuT78/OX40 target cells (EC50): 27 ng/mL | IL-2 production by HuT78/OX40 cells co-cultured with HEK293/OS8Low-FcγRI cells (EC50): 0.06 ng/mL
